Reference: article PMC12205649
Blank lines part the entries; values can stand above or below the molecule they belong to.

Key:
E. coli CsgC (E. coli) = E. coli CsgC (E. coli) (UniProt P52107)
[1] = target: E. coli CsgA, freshly purified monomer (E. coli) (UniProt P28307); assay: native MS; ion mobility-mass spectrometry (nESI, Synapt G2); CsgA and CsgC each diluted to 20 μM and mixed 1:1 in 20 mM ammonium acetate pH 7.4, incubated at 37 °C, time points 0, 3, 6 and 23 h
[2] = target: E. coli CsgA fibrils (sonicated amyloid fibres of WT CsgA) (E. coli) (UniProt P28307); assay: SPR; BIAcore 3000, CM5 chip; sonicated CsgA fibrils amine-coupled at 1300 RU; gel-filtered CsgC injected 5 min at 4 to 0.25 μM (two-fold dilutions); phosphate buffer pH 7.5, 0.05% Tween, 25 °C; fitted with Scrubber2
[3] = target: T1, E. coli CsgC (E. coli), P52107; assay: native MS; ion mobility-mass spectrometry (nESI, Synapt G2); CsgA and CsgC each diluted to 20 μM and mixed 1:1 in 20 mM ammonium acetate pH 7.4, incubated at 37 °C, time points 0, 3, 6 and 23 h; conditions: remark: other sources report otherwise
T1 chain: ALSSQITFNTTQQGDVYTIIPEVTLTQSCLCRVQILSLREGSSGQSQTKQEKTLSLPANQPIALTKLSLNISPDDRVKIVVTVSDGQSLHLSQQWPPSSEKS

ThT binding assay: increase in lag time of CsgA eluted from the CsgC-linked column compared with CsgA eluted from the Tris-quenched column (E. coli CsgC (E. coli)): 51 min | ThT binding assay: increase in time to half maximum ThT fluorescence of CsgA eluted from the CsgC-linked column compared with CsgA eluted from the Tris-quenched column (E. coli CsgC (E. coli)): 52 min
Molecule: E. coli CsgA, freshly purified monomer (from UniProt P28307 21-151) (natural protein)

stoichiometry N [1]: 1 | Kd [2]: 360 nM | koff [2]: 0.00118 s⁻¹
Molecule: E. coli CsgC (from UniProt P52107 9-110) (natural protein)

stoichiometry N [3]: 2
B1: E. coli CsgC, P52107 9-110 (natural protein)
chain: T1 chain
